US20190010231A1 (Pieris, published 2019)

Tests used:
[1] = biological target: T1, human LAG-3-His (LAG-3 with C-terminal polyhistidine tag, ACROBiosystems) (human, UniProt P18627 23-450); experiment: ELISA: LAG-3-His coated, detection anti-Tlc antibody-HRP (an antibody without lipocalin part would not be seen by this detection; see Figure 3C for anti-Fc detection)
T1 construct: Bought protein; also called recombinant LAG-3-His
T1 sequence (looked up): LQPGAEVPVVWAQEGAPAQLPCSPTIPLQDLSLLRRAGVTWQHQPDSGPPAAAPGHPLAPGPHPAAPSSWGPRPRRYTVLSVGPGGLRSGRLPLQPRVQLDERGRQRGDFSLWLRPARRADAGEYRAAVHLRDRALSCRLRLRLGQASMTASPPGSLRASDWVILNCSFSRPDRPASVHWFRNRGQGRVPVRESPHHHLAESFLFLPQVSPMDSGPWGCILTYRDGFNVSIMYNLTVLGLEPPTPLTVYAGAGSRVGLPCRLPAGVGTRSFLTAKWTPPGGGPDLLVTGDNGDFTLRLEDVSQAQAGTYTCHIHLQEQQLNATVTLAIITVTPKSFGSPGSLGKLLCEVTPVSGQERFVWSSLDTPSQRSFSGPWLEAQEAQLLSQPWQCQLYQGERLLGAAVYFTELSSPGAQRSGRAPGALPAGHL

[2] = biological target: T2, human LAG-3-Fc fusion (human LAG-3 extracellular domain fused to human IgG1 Fc fragment, R&D Systems) (human, UniProt P18627 23-450, biotinylated in Example 5 (sites not given)); experiment: dual-binding ELISA: PD-1-His coated, antibody titrated from 250 nM, then biotinylated huLAG-3-Fc 2 ug/mL, detection Extravidin-HRP, RFU
T2 construct: extracellular domain; also called huLAG-3-Fc; biotinylated human LAG-3-Fc; not shown: human IgG1 Fc fragment
T2 sequence (looked up): T1 sequence (looked up)
Procedure: The plates were washed five times after each incubation step with 100 μL PBS-0.05% T. The plates were blocked with 2% BSA (w/v) in PBS-0.1% T for 1 h at room temperature and subsequently washed again. Different concentrations of the fusion polypeptides were added to the wells and incubated for 1 h at room temperature, followed by a wash step. […] After an additional wash step, fluorogenic HRP substrate (QuantaBlu, Thermo) was added to each well and the fluorescence intensity was detected using a fluorescence microplate reader.

B1: PD-1 specific benchmark antibody (SEQ ID NOs: 3 and 4) (antibody, human IgG4 S228P, kappa, V domains shown)
VH: QVQLVESGGGVVQPGRSLRLDCKASGITFSNSGMHWVRQAPGKGLEWVAVIWYDGSKRYYADSVKGRFTISRDNSKNTLFLQMNSLRAEDTAVYYCATNDDYWGQGTLVTVSS
VL: EIVLTQSPATLSLSPGERATLSCRASQSVSSYLAWYQQKPGQAPRLLIYDASNRATGIPARFSGSGSGTDFTLTISSLEPEDFAVYYCQQSSNWPRTFGQGTKVEIKR
notes: Engineered IgG4 backbone with the S228P mutation; also called PD-1-specific antibody
B1: no binding (tested: 250 nM) [1]; no binding (tested: 250 nM) [2].
